According to paper PMC6744678:

Target: Flag-CCDC74B wild-type (in HeLa cells) (human)
Assay: cross-linking; HeLa cells expressing Flag-CCDC74B treated with 1 mM disuccinimidyl suberate (DSS) in DMSO for 30 min; anti-Flag Western blot

stoichiometry N: 2
Substance: Flag-CCDC74B wild-type (in HeLa cells) (natural protein)
